# Reference: paper PMC12007268
# Tests used:
# [1] = molecular target: trastuzumab-EML (L309E/Q311M/M428L) (human); assay: SPR; Biacore T200; trastuzumab-Fc variants amine-coupled to a CM5 chip (about 1,000 RU); hFcRn-His 1,000 to 62.5 nM in 1x PBST pH 6.0, 30 µl/min; 1:1 binding model (trastuzumab: steady state); triplicate
# [2] = molecular target: trastuzumab (wild-type Fc) (human); assay: as above
# [3] = molecular target: trastuzumab-YML (L309Y/Q311M/M428L) (human); assay: as above
# [4] = molecular target: trastuzumab-PFc29 (Q311R/M428L) (human); assay: as above
# [5] = molecular target: trastuzumab-DHS (L309D/Q311H/N434S) (human); assay: as above
# [6] = molecular target: human neonatal Fc receptor, His-tagged (hFcRn-His) (UniProt P55899); assay: BLI; Octet R8; hFcRn-His (40 µg/ml) held on NTA biosensors; trastuzumab-Fc variants in PBS pH 6.0 bound for 20 s, then dissociation in PBS pH 7.4 for 5 s; initial on-rate from the first 2 s, initial off-rate from the first 1 s; values relative to trastuzumab
# [7] = molecular target: FcRn immobilised on the FcRn affinity column Gen2 (Roche Diagnostics) (human) (UniProt P55899); assay: pH-gradient FcRn affinity column chromatography; FcRn affinity column Gen2 (Roche); pH gradient; retention time and pH of elution
# [8] = molecular target: human neonatal Fc receptor, His-tagged (hFcRn-His) (UniProt P55899); assay: BLI (Octet R8); conditions: PBS (composition not stated), PBS pH 6.0 for association, PBS pH 7.4 for dissociation; for Relative on-rate (initial association rate, normalised to trastuzumab) (fold relative to trastuzumab): pH 6.0; for Relative off-rate (initial dissociation rate, normalised to trastuzumab) (fold relative to trastuzumab): pH 7.4
# [9] = molecular target: human neonatal Fc receptor, His-tagged (hFcRn-His) (UniProt P55899); assay: SPR (Biacore T200); conditions: pH 6.0; 1× PBS (composition not stated); 1× PBST (pH 6.0)
# [10] = molecular target: human neonatal Fc receptor, His-tagged (hFcRn-His) (UniProt P55899)
Substance,average of relative on- and off-rate [6] [fold],relative initial off-rate at pH 7.4 (against trastuzumab) [6] [fold],relative initial on-rate at pH 6.0 (against trastuzumab) [6] [fold],pH at elution from the FcRn affinity column [7] [pH],retention time on the pH-gradient FcRn affinity column [7] [min],"Relative on-rate (initial association rate, normalised to trastuzumab) (fold relative to trastuzumab) [8]","Relative off-rate (initial dissociation rate, normalised to trastuzumab) (fold relative to trastuzumab) [8]",ka [9] [M⁻¹ s⁻¹],kd [9] [s⁻¹],other results
"human neonatal Fc receptor, His-tagged (hFcRn-His) (from UniProt P55899 24-297; P61769 21-119)",,,,,,,,,,Kd [1]: 1.67 µM; koff [1]: 0.0475 s⁻¹; kon [1]: 28500 M⁻¹ s⁻¹; Kd [2]: 4.36 µM; Kd [3]: 0.878 µM; koff [3]: 0.0555 s⁻¹; kon [3]: 63200 M⁻¹ s⁻¹; Kd [4]: 1.81 µM; koff [4]: 0.0721 s⁻¹; kon [4]: 39800 M⁻¹ s⁻¹; Kd [5]: 1.8 µM; koff [5]: 0.0645 s⁻¹; kon [5]: 35700 M⁻¹ s⁻¹
trastuzumab (wild-type Fc) (antibody),1,1,1,7.65,40.6,,,,,
trastuzumab (wild-type human IgG1 Fc),,,,,,1,1,,,
trastuzumab-DHS (L309D/Q311H/N434S) (antibody),1.82,1.83,1.81,,,,,,,
trastuzumab-DHS L309D;Q311H;N434S,,,,,,1.81,1.83,35700,0.0645,
trastuzumab-EML (L309E/Q311M/M428L) (antibody),1.48,1.5,1.47,7.97,48,,,,,
trastuzumab-EML L309E;Q311M;M428L,,,,,,1.47,1.5,28500,0.0475,
trastuzumab-PFc29 (Q311R/M428L) (antibody),1.77,1.6,1.94,8.05,50.2,,,,,
trastuzumab-PFc29 Q311R;M428L,,,,,,1.94,1.6,39800,0.0721,
trastuzumab-YML (L309Y/Q311M/M428L) (antibody),1.92,1.74,2.1,8.09,51.2,,,,,"serum half-life t1/2 (terminal, beta-phase) in hFcRn transgenic mice (Tg276 hemizygous), single i.v. bolus 5 mg/kg, n = 3 [10]: 13.5 days"
trastuzumab-YML L309Y;Q311M;M428L,,,,,,2.1,1.74,63200,0.0555,
